Reference: IntAct's records for PubMed 11872753

B1: Acid-sensing ion channel 3 (Rattus norvegicus (Rat)), O35240 (parent)
chain: MKPRSGLEEAQRRQASDIRVFASSCTMHGLGHIFGPGGLTLRRGLWATAVLLSLAAFLYQVAERVRYYGEFHHKTTLDERESHQLTFPAVTLCNINPLRRSRLTPNDLHWAGTALLGLDPAEHAAYLRALGQPPAPPGFMPSPTFDMAQLYARAGHSLEDMLLDCRYRGQPCGPENFTVIFTRMGQCYTFNSGAHGAELLTTPKGGAGNGLEIMLDVQQEEYLPIWKDMEETPFEVGIRVQIHSQDEPPAIDQLGFGAAPGHQTFVSCQQQQLSFLPPPWGDCNTASLDPDDFDPEPSDPLGSPRPRPSPPYSLIGCRLACESRYVARKCGCRMMHMPGNSPVCSPQQYKDCASPALDAMLRKDTCVCPNPCATTRYAKELSMVRIPSRASARYLARKYNRSESYITENVLVLDIFFEALNYEAVEQKAAYEVSELLGDIGGQMGLFIGASLLTILEILDYLCEVFQDRVLGYFWNRRSAQKRSGNTLLQEELNGHRTHVPHLSLGPRPPTTPCAVTKTLSASHRTCYLVTRL
partner: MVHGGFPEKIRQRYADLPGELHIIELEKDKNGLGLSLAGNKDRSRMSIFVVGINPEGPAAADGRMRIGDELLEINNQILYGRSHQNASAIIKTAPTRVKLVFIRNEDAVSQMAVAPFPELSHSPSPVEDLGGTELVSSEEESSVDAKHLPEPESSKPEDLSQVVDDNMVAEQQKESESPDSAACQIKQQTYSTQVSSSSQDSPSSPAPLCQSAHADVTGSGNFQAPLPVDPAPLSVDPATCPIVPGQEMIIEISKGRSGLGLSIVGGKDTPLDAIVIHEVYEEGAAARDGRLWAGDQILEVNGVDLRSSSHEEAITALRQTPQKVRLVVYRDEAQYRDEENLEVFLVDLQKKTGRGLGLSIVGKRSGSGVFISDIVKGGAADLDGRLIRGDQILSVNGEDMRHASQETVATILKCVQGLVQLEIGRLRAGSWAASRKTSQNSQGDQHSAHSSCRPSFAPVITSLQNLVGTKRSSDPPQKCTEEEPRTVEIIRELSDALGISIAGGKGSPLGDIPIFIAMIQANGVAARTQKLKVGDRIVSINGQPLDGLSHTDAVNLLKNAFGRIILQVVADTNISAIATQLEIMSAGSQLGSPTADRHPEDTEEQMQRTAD

Variants of: B1
Details: with Patj

effect of a mutation on the interaction | Variant
disrupting interaction | L533F
